Patent publication US20220135694A1, “NOVEL CD40-BINDING ANTIBODIES” (LAVA THERAPEUTICS B.V., priority 2019, published 2022)
Blank lines part the entries; values can stand above or below the molecule they belong to.

How the values were obtained:
CD40 [1] = molecular target: T1, CD40 (Homo sapiens, UniProt P25942); experiment: CD40 agonistic activity in primary CLL cells, 48 h, flow cytometry; type: cell-based; details: for CD40 stimulation (viability, CD86 and CD95 expression): various concentrations, FIG. 3A-C
T1 construct: Primary chronic lymphocytic leukemia (CLL) cells express CD40 on the cell surface; endogenous in cells; host or cells: primary CLL PBMCs from untreated CLL patients
Procedure: PBMCs (≥90% CD5^+CD19^+) from untreated CLL patients were obtained and cryopreserved as described in Example 3. Thawed cells were kept in complete IMDM.
To assess whether binding of the VHH to CD40 has agonistic effects, primary CLL PBMCs were cultured for 48 hours in the presence of VHH, medium control or recombinant multimeric CD40 ligand (rmCD40L; 100 ng/mL, Bioconnect).
After 48 hours, cells were harvested, washed and incubated with AF700-conjugated anti-CD19 (557921), FITC-conjugated anti-CD80 (6109965), APC-conjugated anti-CD86 (555660, all BD Biosciences), PE-conjugated anti-CD5 (12-0059-42, Thermo Fisher Scientific) and PECy7-conjugated anti-CD95 (305621, Biolegend, San Diego, Calif., USA) antibodies for 20 minutes at 4° C. Alternatively, after 48 hours, cells were harvested and viability was measured using Mitotracker Orange (25-minute incubation at 37° C.) and To-pro-3 (10-minute incubation at room temperature; both Thermo Fisher Scientific). Samples were measured on a FACSCanto cytometer (BD Biosciences) and analyzed with Flowjo MacV10.
To assess whether binding of the VHH has agonistic effects, primary CLL PBMCs were cultured with the indicated concentrations of V19S76K-5C8, medium control or rmCD40L for 48 hours and analyzed by flow cytometry as described in Example 4.

[2] = molecular target: T2, human CD40 (CD40-transfected HEK293T cells) (Homo sapiens, UniProt P25942); experiment: Monovalent VHH binding to CD40-transfected HEK293T cells, Myc-tag flow cytometry; details: for average geometric mean fluorescence intensity (Myc-tag): CD40-transfected HEK293T cells, 2 experiments
T2 construct: expressed in transfected cells; host or cells: HEK293T
Procedure: The embryonic kidney cell line HEK293T, either wildtype (WT) or transfected with human CD40, was grown in Dulbecco's Modified Eagle Medium (41965-039, Thermo Fisher Scientific, Waltham, Mass., USA), supplemented with 10% fetal calf serum (F7524, Merck, Kenilworth, N.J., USA), 200 mM L-glutamine (25030-123, Thermo Fisher Scientific), 0.05 mM β-mercapto-ethanol (M6250, Merck) and 10,000 U/mL penicillin/streptomycin (15140-122, Thermo Fisher Scientific), hereafter referred to as complete DMEM.
CD40 expression on CD40-transfected cells was confirmed by incubation with a PE-conjugated anti-CD40 antibody (IM1936U, Beckman Coulter, Brea, Calif., USA) for 20 minutes at 4° C. […] Bound VHH was detected by sequential incubation with mouse-anti-Myc tag (05-274, Merck) and AF488-conjugated goat-anti-mouse (A-11001, Thermo Fisher Scientific) antibodies for 20 minutes at 4° C.
Samples were measured on a FACSCanto cytometer (BD Biosciences, Franklin Lakes, N.J., USA) and analyzed with Flowjo MacV10.

human CD40 [3] = molecular target: T3, human CD40 (human, UniProt P25942 21-277); experiment: flow cytometry, CD40-transfected HEK293T cells, VHH 1 µM, Myc-tag detection; controls: cells without VHH and WT HEK293T with and without VHH
T3 construct: In the assays it stood on CD40-transfected HEK293T cells, primary CLL cells or the CLL-derived CII cell line; also called tumor necrosis factor receptor superfamily member 5; TNR5_HUMAN
Procedure: FIG. 1: Anti-CD40 VHHs bind to CD40-expressing cells. (A) CD40 expression on WT (filled histogram) and CD40-transfected (unfilled histogram) HEK293T cells. (B) CD40-negative WT or CD40-transfected HEK293T cells were incubated with V12t (1 μM), V15t (1 μM), V19t (1 μM) or medium control and the Myc-tag was subsequently detected by flow cytometry. Representative histograms obtained in 3 independent experiments are shown.

human CD40 [4] = molecular target: T3, human CD40; experiment: cell-based or functional assay
CD40+ CII target cells = experiment: Cytotoxicity assay: CII target cells with Vγ9Vδ2-T cells; type: cell-based, human; details: overnight with Vγ9Vδ2-T cells, 1:1 ratio; FIG. 11A
Procedure: CD40^+ CII cells and Vγ9Vδ2-T cells were grown as described in Example 7.
CII target cells were labeled with carboxyfluorescein succinimidyl ester (CFSE; C1157, Thermo Fisher Scientific) and incubated with VHH or medium control for 30 minutes at 37° C. Target cells were then cocultured overnight with Vγ9Vδ2-T cell lines in a 1:1 ratio.
Viability was measured as described in Example 4.

CD40 [5] = molecular target: T1, CD40; experiment: CD40 antagonistic activity in primary CLL cells: pre-incubation, then rmCD40L for 48 h; type: cell-based; details: 30 min pre-incubation, then rmCD40L 100 ng/mL for 48 hours; FIG. 4A-C
Procedure: PBMCs (≥90% CD5^+CD19^+) from untreated CLL patients were obtained and cryopreserved as described in […]. Thawed cells were kept in complete IMDM.
To test whether the VHH antagonizes CD40 stimulation, primary CLL PBMCs were pre-incubated with VHH or medium control for 30 minutes at 37° C. and subsequently cultured for 48 hours in the presence of rmCD40L (100 ng/mL).
After 48 hours, cells were analyzed by flow cytometry as described in Example 4.
To assess whether binding of the VHH has antagonistic effects, primary CLL PBMCs were pre-incubated with V19S76K-5C8 or medium control and then cultured with rmCD40L for 48 hours and analyzed by flow cytometry as described in Example 5.

T2 sequence (P25942 21-277): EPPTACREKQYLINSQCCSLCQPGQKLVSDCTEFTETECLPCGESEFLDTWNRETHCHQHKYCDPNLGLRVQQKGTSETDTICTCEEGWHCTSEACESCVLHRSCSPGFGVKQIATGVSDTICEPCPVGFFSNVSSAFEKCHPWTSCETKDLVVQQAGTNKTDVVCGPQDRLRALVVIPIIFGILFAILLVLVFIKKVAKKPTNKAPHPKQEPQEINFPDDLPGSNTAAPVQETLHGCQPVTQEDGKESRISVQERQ
T1 sequence (P25942 21-277): as above
T3 sequence (P25942 21-277 limits assumed): as the sequence (P25942 21-277) above

- CD40 stimulation (expression of CD80, CD86 and CD95) (CD40 [1]; FIG. 7A-C): effectively induced CD40 stimulation
Molecule: rmCD40L: recombinant multimeric CD40 ligand, 100 ng/mL, Bioconnect [reference compound]
- CD40 stimulation (viability, CD86 and CD95 expression) (CD40 [1]): effectively induced CD40 stimulation

- binding affinity to CD40 after S76K mutation, relative to V19t [2]: retained
- average geometric mean fluorescence intensity (Myc-tag) ([2]; VHH concentration 1 pM): 4790
- average geometric mean fluorescence intensity (Myc-tag) ([2]; VHH concentration 10 pM): 4949
- average geometric mean fluorescence intensity (Myc-tag) ([2]; VHH concentration 100 pM): 5502
- average geometric mean fluorescence intensity (Myc-tag) ([2]; VHH concentration 1 nM): 7906
- average geometric mean fluorescence intensity (Myc-tag) ([2]; VHH concentration 10 nM): 9283
- average geometric mean fluorescence intensity (Myc-tag) ([2]; VHH concentration 100 nM): 17062
B1: V19S76Kt: V19t VHH in which serine at position 76 (putative glycosylation site) was altered into lysine, SEQ ID NO:22 (protein)
VHH: QVQLQESGGGLVQAGGSLRLSCAASGRTFGRSAMGWFRQAPGKEREFVAAIGTRGGSTKYADSVKGRFTISTDNAKNTVYLQMDSLKPEDTAVYRCAVRGPGYPSAAIFQDEYHYWGQGTQVTVSSGLEGHSDHMEQKLISEEDLNRISDHHHHHH
modifications: antibody sequence

- binding result (human CD40 [3]): binds
B2: V12t (VHH)
VHH: QVQLQESGGGLVQAGGSLRLSCAASGLVFKRYSMNWYRQPPGQQRGLVASISDSGVSTNYADSVKGRFTISRDNAKNIGYLQMNSLKPEDTAVYYCNMHTFWGQGTQVTVSS
notes: Llama VHH with C-terminal Myc- and His6-tag; also called monovalent anti-CD40 VHH V12t

B3: V12-5C8t (bispecific antibody)
chain: QVQLQESGGGLVQAGGSLRLSCAASGLVFKRYSMNWYRQPPGQQRGLVASISDSGVSTNYADSVKGRFTISRDNAKNIGYLQMNSLKPEDTAVYYCNMHTFWGQGTQVTVSSGGGGSEVQLVESGGGLVQAGGSLRLSCAASGRPFSNYAMGWFRQAPGKEREFVAAISWSGGSTSYADSVKGRFTISRDNAKNTVYLQMNSPKPEDTAIYYCAAQFSGADYGFGRLGIRGYEYDYWGQGTQVTVSSGLEGHSDHMEQKLISEEDLNRISDHHHHHH
- lysis of primary CLL cells by Vγ9Vδ2-T cells (specific cell death) at 100 nM (human CD40 [4]): 45.3%

B4: V12-5C8t: bispecific VHH: anti-CD40 V12 joined to anti-Vδ2-TCR 5C8 by Gly4Ser linker, Myc- and His6-tag, SEQ ID NO:37 (protein)
VHH: B3 chain
modifications: antibody sequence
- lysis of CII target cells (CD40+ CII target cells): less potent

B5: V19-5C8t (bispecific antibody)
chain: QVQLQESGGGLVQAGGSLRLSCAASGRTFGRSAMGWFRQAPGKEREFVAAIGTRGGSTKYADSVKGRFTISTDNASNTVYLQMDSLKPEDTAVYRCAVRGPGYPSAAIFQDEYHYWGQGTQVTVSSGGGGSEVQLVESGGGLVQAGGSLRLSCAASGRPFSNYAMGWFRQAPGKEREFVAAISWSGGSTSYADSVKGRFTISRDNAKNTVYLQMNSPKPEDTAIYYCAAQFSGADYGFGRLGIRGYEYDYWGQGTQVTVSSGLEGHSDHMEQKLISEEDLNRISDHHHHHH
- lysis of primary CLL cells by Vγ9Vδ2-T cells (specific cell death) at 100 nM (human CD40 [4]): 68.5%

B6: V15-5C8t (bispecific antibody)
chain: EVQLQESGGGLVQAGGSLRLSCVTSGSAFSSDTMGWFRQAPGKQRELVASISSRGVREYADSVKGRFTISRDNAKNTVYLQMNSLQPEDTAVYYCNRGALGLPGYRPYNNWGQGTQVTVSSGGGGSEVQLVESGGGLVQAGGSLRLSCAASGRPFSNYAMGWFRQAPGKEREFVAAISWSGGSTSYADSVKGRFTISRDNAKNTVYLQMNSPKPEDTAIYYCAAQFSGADYGFGRLGIRGYEYDYWGQGTQVTVSSGLEGHSDHMEQKLISEEDLNRISDHHHHHH
- lysis of primary CLL cells by Vγ9Vδ2-T cells (specific cell death) at 100 nM (human CD40 [4]): 70.5%

- binding to CD40-expressing cells ([2]; detection of the Myc tag, FIG. 1B): bound to the CD40-expressing cells
B7: V12t: monovalent anti-CD40 VHH V12 with C-terminal Myc- and His6-tag, SEQ ID NO:36 (protein)
VHH: QVQLQESGGGLVQAGGSLRLSCAASGLVFKRYSMNWYRQPPGQQRGLVASISDSGVSTNYADSVKGRFTISRDNAKNIGYLQMNSLKPEDTAVYYCNMHTFWGQGTQVTVSSGLEGHSDHMEQKLISEEDLNRISDHHHHHH
modifications: antibody sequence
- CD40 stimulation (viability, CD86 and CD95 expression) (CD40 [1]): did not induce any of these effects
- prevention of CD40L-induced CD40 stimulation (viability, CD86 and CD95 expression) (CD40 [5]): did not block CD40L-induced effects

- binding result (human CD40 [3]): binds
B8: V15t (VHH)
VHH: EVQLQESGGGLVQAGGSLRLSCVTSGSAFSSDTMGWFRQAPGKQRELVASISSRGVREYADSVKGRFTISRDNAKNTVYLQMNSLQPEDTAVYYCNRGALGLPGYRPYNNWGQGTQVTVSS
notes: Llama VHH with C-terminal Myc- and His6-tag; also called monovalent anti-CD40 VHH V15t
